Data on 1 substance can be found in US20190298850A1.

This experiment addresses IL-21 (human) (UniProt Q9HBE4). Put plainly: cell-based or functional assay.
Chain of UniProt Q9HBE4 (Q9HBE4 25-162 limits assumed): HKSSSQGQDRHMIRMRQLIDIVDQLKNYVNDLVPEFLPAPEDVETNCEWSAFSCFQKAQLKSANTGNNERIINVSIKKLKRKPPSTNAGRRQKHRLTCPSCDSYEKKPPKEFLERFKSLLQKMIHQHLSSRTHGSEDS

Regarding “IL-21R-Ig fusion protein (from UniProt Q9HBE5 20-232) (Fc fusion)”, the decrease in plasma cell differentiation of memory B cells co-cultured with blood PD-1hi CXCR5+ or PD-1hi CXCR5- CD4+ T cells was 90%.
